Reference: US20250171536A1

Legend:
[1] = biological target: Human CD117 (c-kit), cell-surface expressed (human) (UniProt P10721); assay: cell-based or functional assay
[2] = biological target: Cyno CD117, soluble (cynoCD117 1-520) (cynomolgus monkey); assay: SPR Biacore 4000, captured antibody, soluble CD117 analyte, 1:1 fit
[3] = biological target: Full length human CD117, soluble (HuCD117 1-524) (human) (UniProt P10721); assay: as above
[4] = biological target: N-terminal domain of human CD117, soluble (HuCD117 1-308) (human) (UniProt P10721); assay: as above
Chain of N-terminal domain of human CD117, soluble (HuCD117 1-308) (human) (P10721 26-308): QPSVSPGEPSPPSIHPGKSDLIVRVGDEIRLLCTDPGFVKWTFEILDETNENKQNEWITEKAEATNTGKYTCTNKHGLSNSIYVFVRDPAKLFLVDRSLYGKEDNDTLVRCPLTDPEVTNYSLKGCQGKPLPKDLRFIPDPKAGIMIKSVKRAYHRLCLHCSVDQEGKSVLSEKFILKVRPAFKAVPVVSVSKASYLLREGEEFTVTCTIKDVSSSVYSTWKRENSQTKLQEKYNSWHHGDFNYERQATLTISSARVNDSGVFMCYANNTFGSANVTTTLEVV

Chain of Human CD117 (c-kit), cell-surface expressed (human) (P10721 26-976 limits assumed): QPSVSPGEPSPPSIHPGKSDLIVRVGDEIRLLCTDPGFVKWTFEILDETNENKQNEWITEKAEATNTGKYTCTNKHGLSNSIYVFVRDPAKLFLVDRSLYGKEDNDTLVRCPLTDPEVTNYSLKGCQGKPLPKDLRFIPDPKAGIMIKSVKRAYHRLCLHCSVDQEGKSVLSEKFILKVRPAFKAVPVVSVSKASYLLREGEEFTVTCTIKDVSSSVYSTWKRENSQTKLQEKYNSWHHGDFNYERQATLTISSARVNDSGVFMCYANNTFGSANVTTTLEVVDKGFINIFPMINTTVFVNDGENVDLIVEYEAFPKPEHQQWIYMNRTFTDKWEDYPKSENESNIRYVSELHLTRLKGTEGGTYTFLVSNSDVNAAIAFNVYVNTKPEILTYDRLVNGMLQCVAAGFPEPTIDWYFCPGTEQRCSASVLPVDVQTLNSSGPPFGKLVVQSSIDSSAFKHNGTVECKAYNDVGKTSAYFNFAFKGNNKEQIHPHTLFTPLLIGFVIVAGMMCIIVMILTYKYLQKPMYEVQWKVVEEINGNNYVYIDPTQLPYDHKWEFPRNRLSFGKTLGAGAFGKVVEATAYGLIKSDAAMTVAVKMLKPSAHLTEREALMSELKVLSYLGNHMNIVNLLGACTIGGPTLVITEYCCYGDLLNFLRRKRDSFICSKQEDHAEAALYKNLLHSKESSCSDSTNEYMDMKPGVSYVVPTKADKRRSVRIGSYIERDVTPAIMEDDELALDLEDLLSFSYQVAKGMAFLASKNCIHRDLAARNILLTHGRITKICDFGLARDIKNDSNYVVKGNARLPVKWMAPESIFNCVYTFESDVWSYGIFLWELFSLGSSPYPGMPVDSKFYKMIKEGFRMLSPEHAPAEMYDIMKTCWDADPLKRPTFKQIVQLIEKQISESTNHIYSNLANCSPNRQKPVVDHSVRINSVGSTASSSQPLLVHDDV
Chain of Cyno CD117, soluble (cynoCD117 1-520) (cynomolgus monkey) (P10721 other isoform, or with tags, fused parts or gaps): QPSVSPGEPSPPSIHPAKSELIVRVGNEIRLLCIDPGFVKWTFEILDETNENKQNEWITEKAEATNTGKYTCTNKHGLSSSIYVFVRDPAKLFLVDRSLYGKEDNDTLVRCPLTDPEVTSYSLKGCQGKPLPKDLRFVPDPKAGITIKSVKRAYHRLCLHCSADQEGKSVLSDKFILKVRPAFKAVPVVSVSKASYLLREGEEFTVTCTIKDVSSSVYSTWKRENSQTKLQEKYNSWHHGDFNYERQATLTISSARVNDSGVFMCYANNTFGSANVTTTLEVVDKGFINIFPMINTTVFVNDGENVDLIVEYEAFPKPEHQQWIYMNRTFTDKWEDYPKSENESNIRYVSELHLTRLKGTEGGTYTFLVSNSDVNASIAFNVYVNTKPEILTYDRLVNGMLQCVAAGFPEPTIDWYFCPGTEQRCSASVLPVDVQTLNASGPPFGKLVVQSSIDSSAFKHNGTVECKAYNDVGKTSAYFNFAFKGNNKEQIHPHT
Chain of Full length human CD117, soluble (HuCD117 1-524) (human) (P10721 26-524): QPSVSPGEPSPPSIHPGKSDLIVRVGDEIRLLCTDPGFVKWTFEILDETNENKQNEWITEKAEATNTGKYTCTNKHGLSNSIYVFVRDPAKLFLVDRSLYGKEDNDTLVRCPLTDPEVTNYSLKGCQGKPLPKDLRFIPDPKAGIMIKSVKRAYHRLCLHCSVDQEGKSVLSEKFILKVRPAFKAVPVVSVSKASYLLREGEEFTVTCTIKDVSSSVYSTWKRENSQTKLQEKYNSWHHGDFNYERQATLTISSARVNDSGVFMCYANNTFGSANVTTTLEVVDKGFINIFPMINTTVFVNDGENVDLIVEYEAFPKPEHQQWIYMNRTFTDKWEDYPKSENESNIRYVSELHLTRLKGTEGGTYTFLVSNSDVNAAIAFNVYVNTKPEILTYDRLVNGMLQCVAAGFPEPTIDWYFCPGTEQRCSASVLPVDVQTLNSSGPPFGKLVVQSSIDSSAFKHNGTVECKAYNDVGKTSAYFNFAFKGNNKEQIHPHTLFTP

B1: huAb249 IgA2 (antibody, from another filing, V domains shown)
VH: EVQLVQSGAEVKKPGESLKISCKGSGYRFTTSWIGWVRQMPGKGLEWMGIIYPGDSDTRYSPSFQGQVTISADKSISTAYLQWSSLKASDTAMYYCARHGLGYNGYEGAFDIWGQGTLVTVSS
VL: DIQMTQSPSSLSASVGDRVTITCRASQGIGSALAWYQQKPGKAPKLLIYDASNLETGVPSRFSGSGSGTDFTLTISSLQPEDFATYYCQQLNGYPLTFGQGTRLEIK
- EC50 of trogocytosis (ADCT; DILC18 membrane uptake by neutrophils from CD117-transfected 293 cells) [1]: 0.48 nM
- Normalised uptake (B max) in %, ADCT [1]: 70.6%
- Kd [2]: 0.1 nM
- Kd [3]: 0.3 nM
- Kd [4]: 0.08 nM

B2: huAb249 IgG4 (antibody, from another filing, V domains shown)
VH: EVQLVQSGAEVKKPGESLKISCKGSGYRFTTSWIGWVRQMPGKGLEWMGIIYPGDSDTRYSPSFQGQVTISADKSISTAYLQWSSLKASDTAMYYCARHGLGYNGYEGAFDIWGQGTLVTVSS
VL: DIQMTQSPSSLSASVGDRVTITCRASQGIGSALAWYQQKPGKAPKLLIYDASNLETGVPSRFSGSGSGTDFTLTISSLQPEDFATYYCQQLNGYPLTFGQGTRLEIK
- Kd [2]: 0.3 nM
- Kd [3]: 0.3 nM
- Kd [4]: 0.14 nM
